Experimental data published in patent US10808017B2, “Ubiquitin variants and uses therof as 53BP1 inhibitors” (The Governing Council of the University of Toronto, priority 2016, dated 2020).

Columns and labels:
RPL24 = target: T1, RPL24 (Homo sapiens, UniProt P83731); experiment: Flag IP-MS of i53/i53-DM baits: prey RPL24; type: binding; settings: 293T Flp-In/T-Rex extracts, LC-MS/MS, one column per replicate IP
T1 construct: endogenous in cells; host or cells: HEK293 Flp-In/T-REx
Method: (§1) Following immunoprecipitation of Flag-tagged i53 and i-53-DM from HEK293 Flp-In/T-REx cells, peptides were identified using LC-MS/MS. Proteins were digested in solution with trypsin (Sigma, T7575-1KT) and dried to completeness. For LC-MS/MS analysis, peptides were reconstituted in 5% formic acid and loaded onto a 12-15 cm fused silica column with pulled tip packed in-house with 3.5 μm Zorbax C18 (Agilent Technologies, Calif., USA).
(§2) i53 and i53-DM precipitates were analyzed using an LTQ (Thermo Scientific) coupled to an Agilent 1100 Series HPLC (Agilent Technologies). Peptides were eluted from the column using a 90 min period cycle with a linear gradient from 0% to 40% ACN in 0.1% formic acid. Tandem MS spectra were acquired in a data-dependent mode for the top 5 (LTQ) most abundant ions using collision-induced dissociation. Acquired spectra were searched against the human Refseq_V53 database using Mascot (Matrix Science).
(§3) 293T Flp-In/T-Rex cell lines were generated that expressed Flag-tagged i53 or i53-DM under the control of a tetracycline-inducible promoter as previously described. Nine IP-MS experiments were analyzed (3 biological replicate IPs each for control i53- and i53-DM expressing cell lines). The interacting proteins were identified by MASCOT to identify high-confidence interactors for i53. […]

[1] = system: MMEJ in U2OS EJ2-GFP cells; experiment: EJ2-GFP reporter assay for MMEJ; type: cell-based; settings: GFP-positive cells 48 h post-transfection, N=4
Method: FIG. 8 (Related to FIG. 3.) FIG. 8A, Immunoblots of whole cell lysates prepared from U2OS DR-GFP cells transfected with vectors expressing Flag-tagged i53, its DM mutant or an empty vector along with an I-SceI expression vector and probed with the indicated antibodies. FIG. 8B, U2OS DR-GFP cells were transfected with the vectors expressing Flag-tagged i53 or the DM mutant along with an I-SceI expression vector. Cells were treated either with DMSO (−) or 1 μM SCR7 (+). The percentage of GFP-positive cells was determined 48 h post-transfection for each condition and was normalized to the DM condition (mean±s.d., N=4). FIG. 8C, Control immunoblot of the experiment shown in (b). FIG. 8D, Immunoblots of whole cell lysates prepared from U2OS DR-GFP cells transfected with the indicated siRNAs along with an I-Scel expression vector and probed with the indicated antibodies. […] The percentage of GFP-positive cells was determined 48 h post-transfection for each condition and was normalized to the empty vector condition (mean±s.d., N=4). […]
The direct repeat (DR)-GFP assay to measure the frequency of HR and the strand annealing EJ2-GFP assay to measure the frequency of MMEJ were performed as previously described. […] 48 h post-plasmid transfection, the cells were trypsinized and the percentage of GFP-expressing cells was analyzed using the BD FACSCalibur flow cytometer.

KRT6A = target: T2, KRT6A (Homo sapiens, UniProt P02538); experiment: Flag IP-MS of i53/i53-DM baits: prey KRT6A; type: binding; settings: 293T Flp-In/T-Rex extracts, LC-MS/MS, one column per replicate IP
T2 construct: Following immunoprecipitation of Flag-tagged i53 and i-53-DM from HEK293 Flp-In/T-REx cells, peptides were identified using LC-MS/MS; endogenous in cells; host or cells: HEK293 Flp-In/T-REx cells
T2 sequence (P02538 1-564): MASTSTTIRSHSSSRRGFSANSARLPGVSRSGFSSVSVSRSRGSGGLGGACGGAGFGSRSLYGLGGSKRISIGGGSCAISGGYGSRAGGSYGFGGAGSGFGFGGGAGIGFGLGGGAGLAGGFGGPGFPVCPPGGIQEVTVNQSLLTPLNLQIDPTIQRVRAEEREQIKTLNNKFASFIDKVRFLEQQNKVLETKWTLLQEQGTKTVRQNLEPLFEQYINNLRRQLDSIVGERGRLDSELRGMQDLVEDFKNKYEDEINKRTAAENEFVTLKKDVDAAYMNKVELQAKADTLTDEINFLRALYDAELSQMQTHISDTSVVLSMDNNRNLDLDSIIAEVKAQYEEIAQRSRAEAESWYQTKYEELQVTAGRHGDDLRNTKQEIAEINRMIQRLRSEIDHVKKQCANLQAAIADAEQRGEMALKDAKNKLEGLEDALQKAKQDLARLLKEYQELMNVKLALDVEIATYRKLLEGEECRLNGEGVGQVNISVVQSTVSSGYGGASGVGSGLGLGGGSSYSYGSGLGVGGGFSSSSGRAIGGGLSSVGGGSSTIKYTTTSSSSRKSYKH
Method: as §1, §2, §3

Substance	Total peptides, RPL24 (RPL24)	Increase in MMEJ over the empty vector [1]	Total peptides, KRT6A (KRT6A)
i53: UbvG08 with C-terminal di-glycine removed and I44A mutation; genetically encoded inhibitor of 53BP1	5	1.4+/−0.15 fold	–
i53-DM: 53BP1-binding deficient mutant of i53 (P69L, L70V)	5	1.3+/−0.1 fold	3
